Data reported in US20180258163A1 (Chugai, published 2018).
Where a chain is given by its changes, count along the chain named. Names and notes keep the numbering of the source. Where two headings read alike, the source gives them in different places. Values belong to the binder of their own block, whether it stands above or below them.

How the values were obtained:
[1] = target: T1, human IL-8 (human, UniProt P10145 23-99, limits assumed); assay: SPR pH 5.8 37C
T1 construct: also called hIL-8
T1 sequence: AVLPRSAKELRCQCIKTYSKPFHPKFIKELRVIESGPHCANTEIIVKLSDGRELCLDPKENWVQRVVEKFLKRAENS
Description: The following two running buffers were used, and measurements were carried out at the respective temperatures: (1) 0.05% tween20, 40 mM ACES, 150 mM NaCl, pH 7.4, 40° C.: and (2) 0.05% tween20, 40 mM ACES, 150 mM NaCl, pH 5.8, 37° C.
An appropriate amount of Protein A/G (PIERCE) was immobilized onto the Sensor chip CM4 (GE Healthcare) by the amine coupling method and the antibodies of interest were captured. Next, a diluted human IL-8 solution or a running buffer (used as a reference solution) was injected to allow interaction of the antibodies captured onto the sensor chip with human IL-8. For the running buffer, either one of the above-mentioned solutions was used, and the respective buffers were also used to dilute human IL-8. To regenerate the sensor chip, 25 mM NaOH and 10 mM glycine-HCl (pH 1.5) were used. KD (M) of each antibody for human IL-8 was calculated based on the association rate constant kon (1/Ms) and dissociation rate constant koff (1/s) which are kinetic parameters calculated from sensorgrams obtained by the measurements. The BIACORE T200 Evaluation Software (GE Healthcare) was used to calculate each parameter.

[2] = target: T2, human IgE (human, UniProt P01854-1 1-428); assay: SPR, IgE on chip, Ab analyte, pH 7.4, 37C
T2 construct: whole IgE; also called hIgE
Description: (§1) Affinities of Ab2 and Ab3 for human IgE at pH 7.4 and pH 5.8 were evaluated as follows. The binding activity (dissociation constant KD (M)) of anti-hIgE antibodies toward hIgE were evaluated using BIACORE T200 (GE Healthcare). Measurements were carried out using the following two buffers as the running buffers: (1) 1.2 mM CaCl₂/0.05% tween 20, 20 mM ACES, 150 mM NaCl, pH 7.4; and (2) 1.2 mM CaCl₂/0.05% tween 20, 20 mM ACES, 150 mM NaCl, pH 5.8.
(§2) Then, to regenerate the sensor chip, 10 mM glycine-HCl at pH 1.5 was injected. All measurements were carried out at 37° C. Association rate constants ka (1/Ms) and dissociation rate constants kd (1/s) were calculated by analyzing the measurement results by curve-fitting using the BIACORE T200 Evaluation Software (GE Healthcare), and dissociation constants KD (M) were calculated based on those values.

[3] = target: T2, human IgE; assay: SPR, IgE on chip, Ab analyte, pH 5.8, 37C
Description: as §1, §2

[4] = target: T3, soluble human FcγRIIb (human, UniProt P31994 43-217, limits assumed); assay: SPR, Ab-IgE complex over captured hFcγRIIb, pH 7.4, 25C
T3 construct: soluble His-tagged form; also called hFcγRIIb
T3 sequence (looked up): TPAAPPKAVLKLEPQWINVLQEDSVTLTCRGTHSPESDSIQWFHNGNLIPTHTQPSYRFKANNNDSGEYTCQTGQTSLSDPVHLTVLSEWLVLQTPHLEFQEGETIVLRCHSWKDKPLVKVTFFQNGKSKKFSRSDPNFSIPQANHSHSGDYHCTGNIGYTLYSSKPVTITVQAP
Description: (§3) Regarding the produced Fc region variant-containing antibodies, binding assays between soluble human FcγRIIb and antigen-antibody complexes were performed using BIACORE T200 (GE Healthcare). Soluble human FcγRIIb (NCBI accession NM_004001.3) was produced in the form of a His-tagged molecule by a method known in the art. An appropriate amount of an anti-His antibody was fixed onto Sensor chip CM5 (GE Healthcare) by the amine coupling method using a His capture kit (GE Healthcare) to capture human FcγRIIb. Next, an antibody-antigen complex and a running buffer (as a reference solution) were injected, and interaction was allowed to take place with the human FcγRIIb captured onto the sensor chip. 20 mM N-(2-Acetamido)-2-aminoethanesulfonic acid, 150 mM NaCl, 1.2 mM CaCl₂, and 0.05% (w/v) Tween 20 at pH 7.4 was used as the running buffer, and the respective buffer was also used to dilute the soluble human FcγRIIb. To regenerate the sensor chip, 10 mM glycine-HCl at pH 1.5 was used. All measurements were carried out at 25° C. Analyses were performed based on binding (RU) calculated from sensorgrams obtained by the measurements, and relative values when the binding amount of Ab1H/Ab1L (original Ab1) was defined as 1.00 are shown. To calculate the parameters, the BIACORE T100 Evaluation Software (GE Healthcare) was used.

[5] = target: T3, soluble human FcγRIIb; assay: as above; remark: listed apart in the source
Description: as §3

T2 sequence (P01854 other isoform, or with tags, fused parts or gaps): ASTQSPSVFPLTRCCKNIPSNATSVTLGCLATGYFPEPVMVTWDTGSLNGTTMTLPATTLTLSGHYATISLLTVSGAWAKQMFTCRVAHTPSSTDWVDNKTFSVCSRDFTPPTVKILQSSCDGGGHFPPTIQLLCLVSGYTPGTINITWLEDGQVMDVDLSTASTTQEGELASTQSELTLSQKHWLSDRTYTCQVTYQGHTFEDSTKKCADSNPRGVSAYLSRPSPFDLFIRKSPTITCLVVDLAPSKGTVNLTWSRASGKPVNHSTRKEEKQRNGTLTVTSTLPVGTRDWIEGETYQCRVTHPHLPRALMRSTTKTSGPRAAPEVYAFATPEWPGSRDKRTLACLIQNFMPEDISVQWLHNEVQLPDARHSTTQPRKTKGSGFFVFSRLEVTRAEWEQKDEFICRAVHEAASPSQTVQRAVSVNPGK

B1: H1000/L0442 (antibody, human IgG1, kappa, name in Kabat numbering, V domains shown)
VH: QVQLVESGGGLVQPGGSLRLSCAASGFTFSEYYLSWVRQAPGKGLEWVGLIRNKDNHHTPEYSASVKGRFTISRDDSKNSLYLTMSDLKTEDTAVYYCARENHRYDVELAYWGQGTLVTVSS
VL: DIQMTQSPSSLSASVGDRVTITCRASEIIYEYLAWYQQKPGKAPKLLIYKAKTHADGVPSRFSGSGSGTDFTFTISSLQPEDIATYYCKHHFGFPRTFGQGTKVEIKR
Kd [1]: 71 µM

B2: H1050/L0395 (antibody, human IgG1, kappa, name in Kabat numbering, V domains shown)
VH: B1 VH with H57Y
VL: B1 VL with E31S
Kd [1]: 7.7 µM

B4: Ab1H030/Ab1L (antibody, human IgG1, kappa, name in Kabat numbering)
heavy: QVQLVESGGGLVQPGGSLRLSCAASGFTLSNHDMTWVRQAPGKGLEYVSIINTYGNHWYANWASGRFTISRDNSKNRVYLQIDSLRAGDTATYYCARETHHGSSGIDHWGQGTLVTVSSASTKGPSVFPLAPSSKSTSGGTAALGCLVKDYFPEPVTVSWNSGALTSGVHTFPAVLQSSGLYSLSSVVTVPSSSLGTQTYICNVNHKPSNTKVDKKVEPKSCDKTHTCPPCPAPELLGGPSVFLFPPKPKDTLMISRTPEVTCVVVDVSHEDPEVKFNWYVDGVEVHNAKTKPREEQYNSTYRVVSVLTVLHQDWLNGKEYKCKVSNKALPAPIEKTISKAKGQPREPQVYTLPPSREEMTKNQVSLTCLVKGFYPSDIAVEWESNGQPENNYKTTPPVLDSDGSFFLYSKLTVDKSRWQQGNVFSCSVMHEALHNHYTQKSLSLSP
light: DIQMTQSPSSVSASVGDRVTITCQASESIYSGLAWYQQKPGQPPKLLIYDHSTLASGVPSRFSGSGSGTEYALTISSLQPEDFATYYCQHADYAHHSDNVFGGGTKVEIKRTVAAPSVFIFPPSDEQLKSGTASVVCLLNNFYPREAKVQWKVDNALQSGNSQESVTEQDSKDSTYSLSSTLTLSKADYEKHKVYACEVTHQGLSSPVTKSFNRGEC
notes: copies: 2 + 2
BIACORE fold (relative binding, original Ab1=1.00) [4]: 1.27 fold

B6: Ab1H039/Ab1L (antibody, human IgG1, kappa, name in Kabat numbering)
heavy: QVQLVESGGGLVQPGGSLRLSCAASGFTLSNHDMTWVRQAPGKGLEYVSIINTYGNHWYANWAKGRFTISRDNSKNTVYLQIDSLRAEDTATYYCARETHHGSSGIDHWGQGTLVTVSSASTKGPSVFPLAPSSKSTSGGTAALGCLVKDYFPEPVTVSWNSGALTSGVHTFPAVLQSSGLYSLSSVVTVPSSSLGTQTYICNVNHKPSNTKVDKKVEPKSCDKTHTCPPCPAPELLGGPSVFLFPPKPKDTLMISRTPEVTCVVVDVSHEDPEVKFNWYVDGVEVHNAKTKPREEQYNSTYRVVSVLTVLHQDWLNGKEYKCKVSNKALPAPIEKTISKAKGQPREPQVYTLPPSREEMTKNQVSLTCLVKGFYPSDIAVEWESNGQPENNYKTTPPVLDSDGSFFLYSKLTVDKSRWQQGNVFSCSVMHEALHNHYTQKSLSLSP
light: B4 light
notes: copies: 2 + 2
BIACORE fold (relative binding, original Ab1=1.00) [4]: 1.57 fold

B13: Ab1H041m/Ab1L (antibody, human IgG1, kappa, name in Kabat numbering)
heavy: not shown
light: B4 light
notes: copies: 2 + 2
BIACORE fold (relative binding, original Ab1=1.00) [4]: 1.52 fold

B15: Ab1H031m/Ab1L (antibody, human IgG1, kappa, name in Kabat numbering)
heavy: not shown
light: B4 light
notes: copies: 2 + 2
BIACORE fold (relative binding, original Ab1=1.00) [4]: 0.06 fold

B17: Ab1H-P1394m/Ab1L (antibody, human IgG1, kappa)
heavy: not shown
light: B4 light
notes: heavy chain = Ab1H with Q311K (EU); copies: 2 + 2
BIACORE fold (relative binding, original Ab1=1.00) [5]: 1.18 fold

B20: Ab1H035/Ab1L (antibody, human IgG1, kappa, name in Kabat numbering)
heavy: not shown
light: B4 light
notes: copies: 2 + 2
BIACORE fold (relative binding, original Ab1=1.00) [4]: 1.28 fold

B23: Ab1H-P1398m/Ab1L (antibody, human IgG1, kappa, name in EU numbering)
heavy: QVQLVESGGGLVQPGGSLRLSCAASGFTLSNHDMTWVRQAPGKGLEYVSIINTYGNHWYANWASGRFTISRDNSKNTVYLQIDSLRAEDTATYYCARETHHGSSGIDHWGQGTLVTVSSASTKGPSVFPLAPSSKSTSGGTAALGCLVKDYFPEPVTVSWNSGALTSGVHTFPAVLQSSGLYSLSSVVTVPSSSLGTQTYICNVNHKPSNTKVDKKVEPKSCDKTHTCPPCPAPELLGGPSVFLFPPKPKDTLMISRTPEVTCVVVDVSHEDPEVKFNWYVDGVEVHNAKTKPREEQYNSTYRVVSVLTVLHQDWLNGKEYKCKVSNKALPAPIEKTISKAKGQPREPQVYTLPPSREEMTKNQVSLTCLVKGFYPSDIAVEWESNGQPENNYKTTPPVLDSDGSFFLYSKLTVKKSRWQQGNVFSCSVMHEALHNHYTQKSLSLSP
light: B4 light
notes: copies: 2 + 2
BIACORE fold (relative binding, original Ab1=1.00) [5]: 1.23 fold

B25: Ab1H045/Ab1L (antibody, human IgG1, kappa, name in Kabat numbering)
heavy: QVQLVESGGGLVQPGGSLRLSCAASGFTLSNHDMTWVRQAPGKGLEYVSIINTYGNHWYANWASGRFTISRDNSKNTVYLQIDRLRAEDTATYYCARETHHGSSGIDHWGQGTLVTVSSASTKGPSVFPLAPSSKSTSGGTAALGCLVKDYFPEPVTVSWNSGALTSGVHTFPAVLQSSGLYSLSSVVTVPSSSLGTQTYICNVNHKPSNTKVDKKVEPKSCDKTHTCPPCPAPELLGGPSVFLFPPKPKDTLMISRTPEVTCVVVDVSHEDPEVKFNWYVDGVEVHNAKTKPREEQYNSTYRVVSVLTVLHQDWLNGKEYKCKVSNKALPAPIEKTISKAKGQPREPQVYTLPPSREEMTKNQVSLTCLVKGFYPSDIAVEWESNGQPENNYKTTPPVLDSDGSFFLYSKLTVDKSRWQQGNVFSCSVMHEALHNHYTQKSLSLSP
light: B4 light
notes: copies: 2 + 2
BIACORE fold (relative binding, original Ab1=1.00) [4]: 0.76 fold

B26: Ab1H034/Ab1L (antibody, human IgG1, kappa, name in Kabat numbering)
heavy: not shown
light: B4 light
notes: copies: 2 + 2
BIACORE fold (relative binding, original Ab1=1.00) [4]: 1.21 fold

Further lines, results first:

Kd [2]: 0.0015 µM | koff [2]: 0.0045 s⁻¹ | kon [2]: 2.9e+06 M⁻¹ s⁻¹ | Kd [3]: 0.097 µM | koff [3]: 0.053 s⁻¹ | kon [3]: 550000 M⁻¹ s⁻¹
B3: Ab2 (antibody, human IgG1, kappa, V domains shown)
VH: QSVEESGGRLVTPGTPLTLTCTVSGFSLSSFNMDWVRQAPGEGLEWIGAVSTGGSAYYAKWAKGRFTISKTSTAVDLKITSPTTEDTATYFCARVDSSGWGYFDLWGQGTLVTVSS
VL: AIEMTQTPFSVSAAVGGTVTINCQASENIYSSLAWYQQKPGQPPKLLIYYASNLASGVSSRFKGSGSGTDFTLTISDLECADAATYYCQSYYFISSTDFNAFGGGTEVVVKR

BIACORE fold (relative binding, original Ab1=1.00) [5]: 1.02 fold
B5: Ab1H-P1483m/Ab1L (antibody, human IgG1, kappa, name in EU numbering)
heavy: not shown
light: B4 light

BIACORE fold (relative binding, original Ab1=1.00) [5]: 1.19 fold
B7: Ab1H-P1515m/Ab1L (antibody, human IgG1, kappa, name in EU numbering)
heavy: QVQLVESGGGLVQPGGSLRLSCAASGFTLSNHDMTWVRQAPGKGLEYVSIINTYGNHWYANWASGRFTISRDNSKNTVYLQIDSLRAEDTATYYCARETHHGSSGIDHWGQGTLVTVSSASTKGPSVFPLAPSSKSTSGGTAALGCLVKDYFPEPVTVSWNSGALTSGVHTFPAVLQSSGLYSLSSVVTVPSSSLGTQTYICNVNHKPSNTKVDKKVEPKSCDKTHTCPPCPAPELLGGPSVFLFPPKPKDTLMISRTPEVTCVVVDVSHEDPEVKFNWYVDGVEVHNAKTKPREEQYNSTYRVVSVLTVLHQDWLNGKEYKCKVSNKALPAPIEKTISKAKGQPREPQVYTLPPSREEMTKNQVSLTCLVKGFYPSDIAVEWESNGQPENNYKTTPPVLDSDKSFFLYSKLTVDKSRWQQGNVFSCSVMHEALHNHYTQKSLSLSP
light: B4 light
notes: copies: 2 + 2

BIACORE fold (relative binding, original Ab1=1.00) [5]: 1.19 fold
B8: Ab1H-P1471m/Ab1L (antibody, human IgG1, kappa, name in EU numbering)
heavy: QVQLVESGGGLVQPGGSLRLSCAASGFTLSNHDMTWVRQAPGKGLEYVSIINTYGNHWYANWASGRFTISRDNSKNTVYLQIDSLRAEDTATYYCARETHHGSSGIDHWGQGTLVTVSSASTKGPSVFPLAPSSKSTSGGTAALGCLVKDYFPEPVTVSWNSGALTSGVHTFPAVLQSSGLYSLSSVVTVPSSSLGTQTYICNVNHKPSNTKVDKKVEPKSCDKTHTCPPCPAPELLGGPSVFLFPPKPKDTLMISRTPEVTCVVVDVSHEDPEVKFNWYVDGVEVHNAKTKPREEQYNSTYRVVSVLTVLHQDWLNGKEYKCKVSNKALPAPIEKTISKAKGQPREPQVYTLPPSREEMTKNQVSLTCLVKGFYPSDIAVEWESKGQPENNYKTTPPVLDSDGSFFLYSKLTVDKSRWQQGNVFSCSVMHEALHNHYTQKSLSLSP
light: B4 light
notes: copies: 2 + 2

BIACORE fold (relative binding, original Ab1=1.00) [5]: 1.46 fold
B9: Ab1H-P1482m/Ab1L (antibody, human IgG1, kappa, name in EU numbering)
heavy: not shown
light: B4 light

BIACORE fold (relative binding, original Ab1=1.00) [5]: 0.79 fold
B10: Ab1H-P1653m/Ab1L (antibody, human IgG1, kappa, name in EU numbering)
heavy: not shown
light: B4 light
notes: copies: 2 + 2

BIACORE fold (relative binding, original Ab1=1.00) [5]: 1.21 fold
B11: Ab1H-P1513m/Ab1L (antibody, human IgG1, kappa, name in EU numbering)
heavy: not shown
light: B4 light
notes: copies: 2 + 2

BIACORE fold (relative binding, original Ab1=1.00) [5]: 1.24 fold
B12: Ab1H-P1512m/Ab1L (antibody, human IgG1, kappa, name in EU numbering)
heavy: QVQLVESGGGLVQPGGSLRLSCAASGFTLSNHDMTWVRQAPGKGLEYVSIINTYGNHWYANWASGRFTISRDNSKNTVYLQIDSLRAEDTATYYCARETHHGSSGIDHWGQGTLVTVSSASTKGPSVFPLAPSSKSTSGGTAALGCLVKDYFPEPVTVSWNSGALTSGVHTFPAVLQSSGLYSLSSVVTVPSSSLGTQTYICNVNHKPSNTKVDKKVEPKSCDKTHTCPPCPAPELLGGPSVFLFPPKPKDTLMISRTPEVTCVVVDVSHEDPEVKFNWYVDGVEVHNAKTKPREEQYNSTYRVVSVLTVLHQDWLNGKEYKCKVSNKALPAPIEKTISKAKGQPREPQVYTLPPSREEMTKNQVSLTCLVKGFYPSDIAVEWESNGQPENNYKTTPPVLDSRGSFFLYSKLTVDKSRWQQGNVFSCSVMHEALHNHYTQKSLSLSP
light: B4 light
notes: copies: 2 + 2

BIACORE fold (relative binding, original Ab1=1.00) [5]: 1.2 fold
B14: Ab1H-P1514m/Ab1L (antibody, human IgG1, kappa, name in EU numbering)
heavy: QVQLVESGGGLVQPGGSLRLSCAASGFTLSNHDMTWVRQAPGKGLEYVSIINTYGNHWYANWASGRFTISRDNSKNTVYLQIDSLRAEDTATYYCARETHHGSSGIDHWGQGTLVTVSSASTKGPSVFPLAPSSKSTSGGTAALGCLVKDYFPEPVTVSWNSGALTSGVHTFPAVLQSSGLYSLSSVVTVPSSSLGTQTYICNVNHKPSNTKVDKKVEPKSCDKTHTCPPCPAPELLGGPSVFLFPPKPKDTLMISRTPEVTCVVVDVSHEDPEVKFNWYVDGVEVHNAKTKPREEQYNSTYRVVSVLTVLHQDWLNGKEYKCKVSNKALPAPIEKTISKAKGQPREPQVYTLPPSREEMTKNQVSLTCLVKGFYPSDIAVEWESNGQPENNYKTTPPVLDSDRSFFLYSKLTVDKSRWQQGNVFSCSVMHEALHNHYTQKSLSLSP
light: B4 light
notes: copies: 2 + 2

BIACORE fold (relative binding, original Ab1=1.00) [5]: 1.03 fold
B16: Ab1H-P1480m/Ab1L (antibody, human IgG1, kappa, name in EU numbering)
heavy: not shown
light: B4 light

BIACORE fold (relative binding, original Ab1=1.00) [5]: 1.13 fold
B18: Ab1H-P1469m/Ab1L (antibody, human IgG1, kappa, name in EU numbering)
heavy: not shown
light: B4 light
notes: copies: 2 + 2

BIACORE fold (relative binding, original Ab1=1.00) [5]: 1.19 fold
B19: Ab1H-P1470m/Ab1L (antibody, human IgG1, kappa, name in EU numbering)
heavy: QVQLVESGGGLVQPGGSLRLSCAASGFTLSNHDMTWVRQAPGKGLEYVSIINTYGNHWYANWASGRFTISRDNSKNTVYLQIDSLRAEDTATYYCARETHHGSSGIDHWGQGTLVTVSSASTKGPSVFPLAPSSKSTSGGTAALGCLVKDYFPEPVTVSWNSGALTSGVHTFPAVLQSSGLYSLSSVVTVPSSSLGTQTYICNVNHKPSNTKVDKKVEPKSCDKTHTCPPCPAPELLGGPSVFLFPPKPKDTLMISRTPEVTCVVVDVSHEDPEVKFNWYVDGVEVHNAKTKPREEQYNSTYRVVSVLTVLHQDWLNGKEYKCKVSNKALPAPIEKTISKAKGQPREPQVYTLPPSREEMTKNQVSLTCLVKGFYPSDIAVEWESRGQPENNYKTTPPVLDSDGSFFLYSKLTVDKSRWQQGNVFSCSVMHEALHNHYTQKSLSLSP
light: B4 light
notes: copies: 2 + 2

BIACORE fold (relative binding, original Ab1=1.00) [5]: 1.08 fold
B21: Ab1H-P1481m/Ab1L (antibody, human IgG1, kappa, name in EU numbering)
heavy: not shown
light: B4 light

BIACORE fold (relative binding, original Ab1=1.00) [5]: 1.13 fold
B22: Ab1H-P1468m/Ab1L (antibody, human IgG1, kappa, name in EU numbering)
heavy: not shown
light: B4 light
notes: copies: 2 + 2

BIACORE fold (relative binding, original Ab1=1.00) [5]: 1.22 fold
B24: Ab1H-P1466m/Ab1L (antibody, human IgG1, kappa, name in EU numbering)
heavy: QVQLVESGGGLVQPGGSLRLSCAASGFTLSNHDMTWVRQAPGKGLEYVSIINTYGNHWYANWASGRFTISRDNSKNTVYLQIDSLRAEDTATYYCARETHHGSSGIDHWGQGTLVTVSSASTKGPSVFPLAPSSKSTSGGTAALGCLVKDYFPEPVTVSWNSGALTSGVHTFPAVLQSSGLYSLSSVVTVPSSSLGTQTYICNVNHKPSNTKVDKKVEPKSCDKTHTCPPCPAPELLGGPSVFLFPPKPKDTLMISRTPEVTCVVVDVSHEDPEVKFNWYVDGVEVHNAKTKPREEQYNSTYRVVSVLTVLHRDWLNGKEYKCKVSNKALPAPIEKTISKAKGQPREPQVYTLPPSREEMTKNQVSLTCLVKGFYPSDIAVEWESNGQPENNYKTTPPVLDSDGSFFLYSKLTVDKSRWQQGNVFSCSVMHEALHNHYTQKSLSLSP
light: B4 light
notes: copies: 2 + 2

Kd [2]: 0.0049 µM | koff [2]: 0.0079 s⁻¹ | kon [2]: 1.6e+06 M⁻¹ s⁻¹ | Kd [3]: 0.23 µM | koff [3]: 0.033 s⁻¹ | kon [3]: 140000 M⁻¹ s⁻¹
B27: Ab3 (antibody, human IgG1, kappa, V domains shown)
VH: QSLEESGGDLVKPGASLTLTCTTSVFDLSSYYWICWVRQAPGKGLEWIACVYATSGSTDYATWAKGRLTISKASSTTVTLQMTSLTAADTATYFCARGGIYGGDGFNLWGPGTLVTVSS
VL: AFELTQTPASVEAAVGGTVTINCQASESISNWLAWYQQKPGQPPKLLIYRASTLTSGVPSRFKGSGSGTEFTLTISDLECADAATYYCQSYDPSIIDGFAFGGGTEVVVKR
